Source: US20140234872

Experiments:
[1] = system: His-GIV-CT (aa 1660-1870), wild-type, phosphorylated in vitro by recombinant EGFR kinase
[2] = system: His-GIV-CT Y1798F, phosphorylated in vitro by recombinant EGFR kinase
[3] = system: His-GIV-CT Y1764F, phosphorylated in vitro by recombinant EGFR kinase
His-GIV-CT Y1764F, phosphorylated in vitro by recombinant EGFR kinase, sequence (chain, as listed by the source Y1764F): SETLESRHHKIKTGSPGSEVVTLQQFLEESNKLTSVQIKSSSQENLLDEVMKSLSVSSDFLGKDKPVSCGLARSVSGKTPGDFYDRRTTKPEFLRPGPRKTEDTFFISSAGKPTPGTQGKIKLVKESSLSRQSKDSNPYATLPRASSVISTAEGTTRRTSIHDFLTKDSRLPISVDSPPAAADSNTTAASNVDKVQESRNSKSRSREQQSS

His-GIV-CT (aa 1660-1870), wild-type, phosphorylated in vitro by recombinant EGFR kinase, sequence (chain, as listed by the source): as the sequence (chain, as listed by the source Y1764F) above, with F105Y counted along it
His-GIV-CT Y1798F, phosphorylated in vitro by recombinant EGFR kinase, sequence (chain, as listed by the source Y1798F): as the sequence (chain, as listed by the source Y1764F) above, with F105Y, Y139F counted along it

| Substance | in vitro phosphatase assay: residual tyrosine phosphorylation of His-GIV-CT [1] | in vitro phosphatase assay: residual tyrosine phosphorylation of His-GIV-CT mutants [2] | in vitro phosphatase assay: residual tyrosine phosphorylation of His-GIV-CT mutants [3] |
| --- | --- | --- | --- |
| GST-SHP-1 C453S (catalytically inactive) | SHP-1 WT, but not SHP-1 CS dephosphorylated tyrosine-phosphorylated His-GIV-CT in a dose-dependent manner |  |  |
| GST-SHP-1 (full length, wild-type, human) | SHP-1 WT, but not SHP-1 CS dephosphorylated tyrosine-phosphorylated His-GIV-CT in a dose-dependent manner |  |  |
| His-SHP-1 (human, recombinant) | SHP-1 efficiently dephosphorylated GIV in a dose-dependent manner | SHP-1 efficiently dephosphorylated both mutants | SHP-1 efficiently dephosphorylated both mutants |
